# According to WO2010108824A1 (dated 2010):
# T1: GST-ABD1+2 of L-plastin (human, UniProt P13796 106-627)
# T1 construct: domain: ABD1+2; also called both ABDs combined; combination of the two ABDs; not shown: glutathione S-transferase tag of vector pGEX-2T
# T1 sequence (looked up): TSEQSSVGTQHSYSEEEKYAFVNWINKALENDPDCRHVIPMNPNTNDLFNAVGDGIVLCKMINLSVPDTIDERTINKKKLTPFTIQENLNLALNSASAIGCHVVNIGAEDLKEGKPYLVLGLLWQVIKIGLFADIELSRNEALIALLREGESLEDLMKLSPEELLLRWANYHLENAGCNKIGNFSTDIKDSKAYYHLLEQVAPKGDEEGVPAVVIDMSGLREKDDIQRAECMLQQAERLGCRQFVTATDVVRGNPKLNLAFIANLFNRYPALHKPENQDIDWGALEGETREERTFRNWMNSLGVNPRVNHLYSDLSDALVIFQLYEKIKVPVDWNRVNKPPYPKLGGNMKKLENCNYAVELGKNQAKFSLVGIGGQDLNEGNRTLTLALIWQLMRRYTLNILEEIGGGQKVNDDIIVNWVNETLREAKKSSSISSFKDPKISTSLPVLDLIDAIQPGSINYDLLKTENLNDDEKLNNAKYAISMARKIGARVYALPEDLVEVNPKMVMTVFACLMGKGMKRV
# B1: human L-plastin (other, UniProt P13796 2-627, looked up)
# chain: ARGSVSDEEMMELREAFAKVDTDGNGYISFNELNDLFKAACLPLPGYRVREITENLMATGDLDQDGRISFDEFIKIFHGLKSTDVAKTFRKAINKKEGICAIGGTSEQSSVGTQHSYSEEEKYAFVNWINKALENDPDCRHVIPMNPNTNDLFNAVGDGIVLCKMINLSVPDTIDERTINKKKLTPFTIQENLNLALNSASAIGCHVVNIGAEDLKEGKPYLVLGLLWQVIKIGLFADIELSRNEALIALLREGESLEDLMKLSPEELLLRWANYHLENAGCNKIGNFSTDIKDSKAYYHLLEQVAPKGDEEGVPAVVIDMSGLREKDDIQRAECMLQQAERLGCRQFVTATDVVRGNPKLNLAFIANLFNRYPALHKPENQDIDWGALEGETREERTFRNWMNSLGVNPRVNHLYSDLSDALVIFQLYEKIKVPVDWNRVNKPPYPKLGGNMKKLENCNYAVELGKNQAKFSLVGIGGQDLNEGNRTLTLALIWQLMRRYTLNILEEIGGGQKVNDDIIVNWVNETLREAKKSSSISSFKDPKISTSLPVLDLIDAIQPGSINYDLLKTENLNDDEKLNNAKYAISMARKIGARVYALPEDLVEVNPKMVMTVFACLMGKGMKRV
# notes: mature; the assay field says which; also called L-fimbrin; endogenous L-plastin
# Tests used:
# [1] = target: the molecule itself; experiment: Superdex 200 HR gel filtration of L-plastin alone
# human L-plastin = target: B1; experiment: ITC, L-plastin titrated with His6-tagged nanobody
# GST-ABD1+2 of L-plastin = target: T1, GST-ABD1+2 of L-plastin; experiment: ITC, nanobody with GST-tagged L-plastin domain
Kd (human L-plastin) [nM],Kd (GST-ABD1+2 of L-plastin) [nM],Binder,binding result [1]
–,–,B1,binds
~40,46.5,"L-plastin nanobody 5 (VHH, Alpaca VHH; His6-tagged recombinant protein (pHEN6c, E. coli) in ITC, gel filtration, pull-down, cross-linking and co-sedimentation; V5-tagged, MOM-V5-tagged or GFP-fused when expressed in PC-3 cells; also called Nb 5; Nb5) VHH: QVQLQESGGGLVQAGDSLRLSCAVSGGTFGRVGVGWFRRAPGKEREFVAAVNWSGISTFYADSVKGRFTISRDDNKHTVDLRMNSLKPEDSAVYFCATDFRFNVPMNGTEYDYWGQGTQVTVSS",–
